This passage reports Kd results from patent US20240325562A1 (published 2024).

The target in assay [1] is T1, recombinant rPDGFRB ectodomain (rat, UniProt Q05030 32-531).
T1 chain: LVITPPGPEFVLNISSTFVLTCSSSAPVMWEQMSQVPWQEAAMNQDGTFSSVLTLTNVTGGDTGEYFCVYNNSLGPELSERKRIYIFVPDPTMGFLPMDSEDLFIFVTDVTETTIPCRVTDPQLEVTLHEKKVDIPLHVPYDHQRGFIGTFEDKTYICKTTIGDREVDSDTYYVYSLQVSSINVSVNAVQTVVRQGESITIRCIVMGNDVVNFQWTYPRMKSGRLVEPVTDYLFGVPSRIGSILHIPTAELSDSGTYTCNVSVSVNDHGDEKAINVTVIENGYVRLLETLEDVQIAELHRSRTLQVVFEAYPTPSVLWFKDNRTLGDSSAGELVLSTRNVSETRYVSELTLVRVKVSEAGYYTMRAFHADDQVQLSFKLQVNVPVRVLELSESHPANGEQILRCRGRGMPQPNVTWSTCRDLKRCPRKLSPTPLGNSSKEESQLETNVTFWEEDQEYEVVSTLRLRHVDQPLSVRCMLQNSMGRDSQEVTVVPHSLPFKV
Description: binding to immobilized ectodomain.

The target of assay [2] is T2, recombinant hPDGFRB ectodomain (human, UniProt P09619 33-532).
T2 chain: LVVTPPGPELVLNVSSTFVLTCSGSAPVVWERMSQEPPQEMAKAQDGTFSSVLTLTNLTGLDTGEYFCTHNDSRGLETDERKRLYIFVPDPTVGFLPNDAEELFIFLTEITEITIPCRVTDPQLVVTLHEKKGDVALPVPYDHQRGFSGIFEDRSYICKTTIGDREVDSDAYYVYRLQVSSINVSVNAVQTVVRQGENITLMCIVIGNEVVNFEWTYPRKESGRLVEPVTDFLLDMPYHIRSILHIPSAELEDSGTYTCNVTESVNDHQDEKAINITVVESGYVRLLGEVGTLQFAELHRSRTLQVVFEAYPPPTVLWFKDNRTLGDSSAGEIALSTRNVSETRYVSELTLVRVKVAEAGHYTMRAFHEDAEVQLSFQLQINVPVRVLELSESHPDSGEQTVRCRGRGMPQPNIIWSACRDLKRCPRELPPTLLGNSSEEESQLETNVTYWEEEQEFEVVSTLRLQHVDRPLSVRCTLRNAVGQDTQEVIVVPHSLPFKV
Kind of assay: binding to immobilized ectodomain.

Assay [3] deals with T3, full-length rat PDGFRB on cells (rat, UniProt Q05030 32-1097).
T3 chain: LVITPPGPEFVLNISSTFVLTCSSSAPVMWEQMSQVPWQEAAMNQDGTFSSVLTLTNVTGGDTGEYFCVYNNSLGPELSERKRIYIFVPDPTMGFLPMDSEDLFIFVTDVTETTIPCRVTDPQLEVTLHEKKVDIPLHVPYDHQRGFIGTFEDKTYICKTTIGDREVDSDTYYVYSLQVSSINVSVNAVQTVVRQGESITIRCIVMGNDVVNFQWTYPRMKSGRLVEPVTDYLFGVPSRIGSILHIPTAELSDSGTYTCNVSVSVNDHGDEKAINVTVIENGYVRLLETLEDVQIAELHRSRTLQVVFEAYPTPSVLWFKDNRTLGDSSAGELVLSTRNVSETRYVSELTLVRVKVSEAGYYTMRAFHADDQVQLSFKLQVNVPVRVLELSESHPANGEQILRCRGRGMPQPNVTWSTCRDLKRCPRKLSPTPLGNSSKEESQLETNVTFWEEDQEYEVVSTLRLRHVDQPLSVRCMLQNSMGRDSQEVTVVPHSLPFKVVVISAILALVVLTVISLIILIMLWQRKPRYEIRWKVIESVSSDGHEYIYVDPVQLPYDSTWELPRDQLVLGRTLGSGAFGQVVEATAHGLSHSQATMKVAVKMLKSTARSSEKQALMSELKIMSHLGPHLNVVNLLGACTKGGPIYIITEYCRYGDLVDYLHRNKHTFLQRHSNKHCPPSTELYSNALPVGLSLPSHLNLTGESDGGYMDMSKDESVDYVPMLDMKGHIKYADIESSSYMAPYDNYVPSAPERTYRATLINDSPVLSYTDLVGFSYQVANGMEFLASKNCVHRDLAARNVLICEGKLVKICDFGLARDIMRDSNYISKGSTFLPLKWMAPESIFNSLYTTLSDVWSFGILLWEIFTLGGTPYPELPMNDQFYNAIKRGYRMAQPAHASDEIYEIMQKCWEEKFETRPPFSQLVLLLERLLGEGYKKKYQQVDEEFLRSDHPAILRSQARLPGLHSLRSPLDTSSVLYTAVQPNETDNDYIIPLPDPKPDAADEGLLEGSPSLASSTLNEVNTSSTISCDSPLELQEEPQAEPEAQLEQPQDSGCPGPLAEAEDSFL
Description: cell binding; SCC-rPDGFRβ cells.

The target in assay [4] is full-length human PDGFRB on cells (human, UniProt P09619 33-1106). Kind of assay: cell binding; SCC-hPDGFRβ cells.

B1: SP27P (VHH)
VHH: EVQLVESGGGLVQIGDSLRLSCAASGGTFNRYGMGWFRQAPGKEREFVAAIRWDGVDTNYADFVKGRFTISRYNAKNTAYLQMNSLKPEDTAVYYCAADRRGLYTKHAHRYDYWGQGTQVTVSS
Consider B1, for which the Kd in assay [1] came out at 25.5 nM.

B2: SP14P (VHH)
VHH: EVQLVESGGGLVQAGDSLRLSCVVSGLTFSRYGMGWFRQATGKEREFVGGISVGSSGTMYPNSVKGRFTISRDNAKSTVYLQMNSLKPEDTAVYFCAAIDQGSFVQQRDYRYWGQGTQVTVSS
B2: the Kd in assay [2] came out at 8.6 nM.

B3: SP20P (VHH)
VHH: EVQLVESGGGLVQAGGSLRLSCVISGRTSPTYPMGWFRQSPGNEREFVASINWSGGWRNYADSVKDRFTISRDDAKNTVYLQMNSLKPEDTAVYYCARGQYSSGTPVYAHEYAYWGQGTQVTVSS
For the molecule B3, the dissociation constant (Kd) in assay [2] stood at 3.8 nM.

B4: SP26P (VHH)
VHH: EVQLVESGGGLVQAGGSLRLSCAASGRSFSSSVMGWFRQTPGKEREFVAATRWTAASTHYADSVKGRFTISRDHAENAVFLQMNSLKPEDTAVYYCAAGNYLDTAQYRYNYWGQGTQVTVSS
modifications: In the competition assay the reporter copy carried IRDye800 on the C-terminal cysteine, which is not in the letters.
Regarding B4, the dissociation constant (Kd) in assay [3] came out at 0.3 nM.

B5: SP28P (VHH)
VHH: EVQLVESGGGLVQAGGSLRLSCAASGSIVSFNGINWYRQAPGKQREWVGGITQGGNTMYADSVRGRFTISRDNTKNTMYLQMNSLKPEDTAVYYCRRPPVASWGQGTQVTVSS
With B5, the Kd in assay [3] amounted to 0.5 nM; in assay [1], 6 nM.

B6: SP05P (VHH)
VHH: EVQLVESGGGLVQAGGSLRLSCAASGRTSFSGYAMAWFRQAPGKERDFVASITWSYGYTYYTDSAQGRFTISRDSAKNTVYLEMNSLKPEDTAVYYCAADPKASRFRILREYAYWGQGTQVTVSS
Consider B6, for which the Kd in assay [2] came out at 9.2 nM.

B7: SP36P (VHH)
VHH: EVQLVESGGGLVQAGGSLRLSCTPSITTAGTTIMAWFRQAPGNEREFVAAIWGSKTAYGDSMKGRLTISRDNVRDNGQKTVFLQMNNLQLQDTATYYCAASSGGYVHSSTSYEIWGRGTQVTVSS
As to B7, the equilibrium dissociation constant (Kd) in assay [3] came out at 76.6 nM; in assay [1] it was 31 nM.

B8: SP31P (VHH)
VHH: EVQLVESGGGLVQAGGSLRLSCAASRGTFGTYIMGWFRQAPGKEREFVAAISWRGANTYYGYSVKGRFTISRDNAKNTMYLQMADLKPEDTADYYCGVHLNGTPYYYASGYRYWGQGTQVTVSS
Take B8: the Kd was 31.8 nM in assay [3] and 276 nM in assay [1].

B9: SP30P (VHH)
VHH: EVQLVESGGGLVQAGGSLRLSCAASRGTFGTDIMGWFRQAPGKEREFVAAISWRGANTYYGYSVKGRFTISRDNAKNTMYLQMADLKPEDTADYYCGVHLNGTPYYYASGYRYWGQGTQVTVSS
For the molecule B9, the dissociation constant Kd in assay [1] worked out at 12.2 nM.

B10: SP01P (VHH)
VHH: EVQLVESGGGLAQAGGSLRLSCVASGNIDSANGMAWYRQAPGKQRELVAHITSGTSYYVASVEGRFTISRANAKDTWYLQMNSLKPEDTGVYYCFPIGLSAHWSQGTQVTVSS
For B10, the Kd in assay [4] was determined as 7.8 nM; in assay [2] it was 20.4 nM.

B11: SP02P (VHH)
VHH: EVQLVESGGGLVQAGGSLRLSCAASESISSIEQMGWFRQAPGKQRALVAINTYGGRTVYTNSVEGRFTMSRDSAKNMVYLQMTSLEPEDTAVYYCYAQTTAWRGGVWGQGTQVTVSS
Consider B11, for which, in assay [2], the Kd was determined as 6.2 nM.

B12: SP13P (VHH)
VHH: EVQLVESGGGLVQPGGSLRLSCAASESIFSINYMAWYRQAPGKQRELVAFSIDGSSTNYVDSVRGRFTASRDNAENTLYLQMNSLKPEDTAVYYCYAQGNTWAAGVWGQGTQVTVSS
For B12, the Kd in assay [4] was determined as 10.4 nM; in assay [2], 9.3 nM.
